The values below come from the Human Domainome abundance scans (Beltran et al. 2025).

The labels stand for the following.
B1: Zinc finger homeobox protein 3, residues 2643 to 2698; numbered along this chain, Q15911 (parent)
chain: RLRTTITPEQLEILYQKYLLDSNPTRKMLDHIAHEVGLKKRVVQVWFQNTRARERK

± gives the uncertainty stated by the source.

The variants in the series derive from B1. Description: abundance fitness (aPCA) (normalised: wild type 0, dead -1); higher = more abundant; growth selection in yeast, the domain comes from the species named. The conditions noted are these: Homo sapiens.
In the case of RLRTTITPEQLEILYQKYLLDSNPTRKMLDHIAHEVGLKKRVPQVWFQNTRARERK, the abundance fitness is -0.739 ± 0.14. Consider RLRTTITPEQLEILYQKYLLDSNPTRKMLDHIAHEVGLKKRVIQVWFQNTRARERK, for which the abundance fitness was -0.127 ± 0.15. For RLRTTITPEQLEILYQKYLLDSNPTRKMLDHIAHEVGLKKRVDQVWFQNTRARERK, the abundance fitness is -0.867 ± 0.15. Take RLRTTITPEQLEILYQKYLLDSNPTRKMLDHIAHEVGLKKRVQQVWFQNTRARERK: the abundance fitness was -1 ± 0.16. For the variant RLRTTITPEQLEILYQKYLLDSNPTRKMLDHIAHEVGLKKRVFQVWFQNTRARERK, the abundance fitness is -0.815 ± 0.28. Take RLRTTITPEQLEILYQKYLLDSNPTRKMLDHIAHEVGLKKRVMQVWFQNTRARERK: the abundance fitness was -0.889 ± 0.15. As to RLRTTITPEQLEILYQKYLLDSNPTRKMLDHIAHEVGLKKRVGQVWFQNTRARERK, the abundance fitness is -0.937 ± 0.11. The figure for RLRTTITPEQLEILYQKYLLDSNPTRKMLDHIAHEVGLKKRVCQVWFQNTRARERK is -0.345 ± 0.15; for RLRTTITPEQLEILYQKYLLDSNPTRKMLDHIAHEVGLKKRVLQVWFQNTRARERK it is -0.485 ± 0.097. On to RLRTTITPEQLEILYQKYLLDSNPTRKMLDHIAHEVGLKKRVRQVWFQNTRARERK, for which the abundance fitness is -1.03 ± 0.11.

As to RLRTTITPEQLEILYQKYLLDSNPTRKMLDHIAHEVGLKKRVEQVWFQNTRARERK, the abundance fitness is -1.11 ± 0.14. In the case of RLRTTITPEQLEILYQKYLLDSNPTRKMLDHIAHEVGLKKRVNQVWFQNTRARERK, the abundance fitness was -0.64 ± 0.2.

On to RLRTTITPEQLEILYQKYLLDSNPTRKMLDHIAHEVGLKKRVHQVWFQNTRARERK, for which the abundance fitness is -0.973 ± 0.23. Regarding RLRTTITPEQLEILYQKYLLDSNPTRKMLDHIAHEVGLNKRVVQVWFQNTRARERK, the abundance fitness is -0.153 ± 0.14. Take RLRTTITPEQLEILYQKYLLDSNPTRKMLDHIAHEVGLYKRVVQVWFQNTRARERK: the abundance fitness was -0.114 ± 0.22. Consider RLRTTITPEQLEILYQKYLLDSNPTRKMLDHIAHEVGLDKRVVQVWFQNTRARERK, for which the abundance fitness was 0.189 ± 0.13. As to RLRTTITPEQLEILYQKYLLDSNPTRKMLDHIAHEVGLMKRVVQVWFQNTRARERK, the abundance fitness was found to be 0.13 ± 0.11. Turning to RLRTTITPEQLEILYQKYLLDSNPTRKMLDHIAHEVGLGKRVVQVWFQNTRARERK, the abundance fitness is 0.178 ± 0.072. For RLRTTITPEQLEILYQKYLLDSNPTRKMLDHIAHEVGLHKRVVQVWFQNTRARERK, the abundance fitness is -0.392 ± 0.18. Regarding RLRTTITPEQLEILYQKYLLDSNPTRKMLDHIAHEVGLAKRVVQVWFQNTRARERK, the abundance fitness is 0.236 ± 0.087.

With RLRTTITPEQLEILYQKYLLDSNPTRKMLDHIAHEVGLLKRVVQVWFQNTRARERK, the abundance fitness is -0.324 ± 0.1. The figure for RLRTTITPEQLEILYQKYLLDSNPTRKMLDHIAHEVGLTKRVVQVWFQNTRARERK is 0.373 ± 0.11; for RLRTTITPEQLEILYQKYLLDSNPTRKMLDHIAHEVGLPKRVVQVWFQNTRARERK it is 0.224 ± 0.12; for RLRTTITPEQLEILYQKYLLDSNPTRKMLDHIAHEVGLCKRVVQVWFQNTRARERK it is 0.184 ± 0.12.

Regarding RLRTTITPEQLEILYQKYLLDSNPTRKMLDHIAHEVGLWKRVVQVWFQNTRARERK, the abundance fitness was -0.77 ± 0.11. In the case of RLRTTITPEQLEILYQKYLLDSNPTRKMLDHIAHEVGLRKRVVQVWFQNTRARERK, the abundance fitness was -0.012 ± 0.074. As for RLRTTITPEQLEILYQKYLLDSNPTRKMLDHIAHEVGLQKRVVQVWFQNTRARERK, the abundance fitness came out at 0.108 ± 0.15. Consider RLRTTITPEQLEILYQKYLLDSNPTRKMLDHIAHEVGLVKRVVQVWFQNTRARERK, for which the abundance fitness is -0.01 ± 0.092.

As for RLRTTITPEQLEILYQKYLLDSNPTRKMLDHIAHEVGLEKRVVQVWFQNTRARERK, the abundance fitness was found to be 0.518 ± 0.13. Take RLRTTITPEQLEILYQKYLLDSNPTRKMLDHIAHEVGLFKRVVQVWFQNTRARERK: the abundance fitness was -0.929 ± 0.28. With RLRTTITPEQLEILYQKYLLDSNPTRKMLDHIAHEVGLKKREVQVWFQNTRARERK, the abundance fitness is 0.387 ± 0.095.

Turning to RLRTTITPEQLEILYQKYLLDSNPTRKMLDHIAHEVGLKKRFVQVWFQNTRARERK, the abundance fitness is -0.47 ± 0.17. With RLRTTITPEQLEILYQKYLLDSNPTRKMLDHIAHEVGLKKRYVQVWFQNTRARERK, the abundance fitness is -0.021 ± 0.15.

RLRTTITPEQLEILYQKYLLDSNPTRKMLDHIAHEVGLKKRNVQVWFQNTRARERK: the abundance fitness was -0.02 ± 0.14. As for RLRTTITPEQLEILYQKYLLDSNPTRKMLDHIAHEVGLKKRMVQVWFQNTRARERK, the abundance fitness is -0.068 ± 0.11. Regarding RLRTTITPEQLEILYQKYLLDSNPTRKMLDHIAHEVGLKKRHVQVWFQNTRARERK, the abundance fitness is -0.288 ± 0.17. Take RLRTTITPEQLEILYQKYLLDSNPTRKMLDHIAHEVGLKKRGVQVWFQNTRARERK: the abundance fitness is -0.43 ± 0.081. For RLRTTITPEQLEILYQKYLLDSNPTRKMLDHIAHEVGLKKRIVQVWFQNTRARERK, the abundance fitness was -0.073 ± 0.12.

For RLRTTITPEQLEILYQKYLLDSNPTRKMLDHIAHEVGLKKRLVQVWFQNTRARERK, the abundance fitness is -0.03 ± 0.087. For RLRTTITPEQLEILYQKYLLDSNPTRKMLDHIAHEVGLKKRKVQVWFQNTRARERK, the abundance fitness amounted to 0.16 ± 0.15. The figure for RLRTTITPEQLEILYQKYLLDSNPTRKMLDHIAHEVGLKKRTVQVWFQNTRARERK is 0.037 ± 0.11; for RLRTTITPEQLEILYQKYLLDSNPTRKMLDHIAHEVGLKKRCVQVWFQNTRARERK it is -0.021 ± 0.12; for RLRTTITPEQLEILYQKYLLDSNPTRKMLDHIAHEVGLKKRQVQVWFQNTRARERK it is -0.372 ± 0.14. Consider RLRTTITPEQLEILYQKYLLDSNPTRKMLDHIAHEVGLKKRAVQVWFQNTRARERK, for which the abundance fitness was -0.123 ± 0.095.

As to RLRTTITPEQLEILYQKYLLDSNPTRKMLDHIAHEVGLKKRRVQVWFQNTRARERK, the abundance fitness is -0.44 ± 0.091. Consider RLRTTITPEQLEILYQKYLLDSNPTRKMLDHIAHEVGLKKRSVQVWFQNTRARERK, for which the abundance fitness was -0.327 ± 0.092. For the variant RLRTTITPEQLEILYQKYLLDSNPTRKMLDHIAHEVGLKKRPVQVWFQNTRARERK, the abundance fitness was -0.932 ± 0.16.
